# From the RNAGym collection of RNA variant scans (doi:10.1073/pnas.2313332121)
# B1: TPR t1 (parent)
# chain: GACCAAUCUGCCCUCAGAGCUCGAGAACAUCUUCGGAUGCAGAGGAGGCAGGCUUCGGUGGCGCGAUAGCGCCAACGUCCUCAACCUCCAAUGCAUCCCACCACAUGAUGAUGCCUGAAGAGCCUUGGUUUUUUG
# Variants of: B1
# Assay: polymerase ribozyme fitness, log enrichment relative to wild type (log ratio); higher = more active; in vitro selection for triplet polymerase activity
# Procedure, shortened: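 Genotype fitness is the logarithm of its enrichment divided by wild-type enrichment, using inverse-variance-weighted averages of replicates. That logarithm is base 2. Enrichment was measured by Illumina sequencing of input and output libraries from one triplicate in vitro selection round, with frozen incubation at −7 °C, on PCR-built, transcribed mutant libraries of each subunit of a heterodimeric triplet polymerase ribozyme, retaining genotypes with ≥10 input reads and ≥1 read per output.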
row,Variant,polymerase ribozyme fitness (log ratio)
1,G36A G47A G61U,-1.37
2,G48U G110C,-4.65
3,C72G A83G,-0.0856
4,C15A A24G,-5.73
5,C8G U9G C28G G42U G48U U55A C104U G120C,-3.54
6,C20G C72A U87C G113A U130G,-1.05
7,C20A C28A G47C C97U G110C,-6.66
8,U21A G45U,-1.28
9,G44U A118U,-0.733
10,U92C G128C,-3.41
11,G35U G63U C72U,-7.14
12,U7G A41U,-0.368
13,A41U G58C,-1.16
14,C56G U92G U96A G122A,-4.6
15,C11G U54C G60U C86U,-0.56
16,C11U C98U,-1.79
17,A18C C20A U54A U96A,-3.05
18,C8G C89U,-0.514
19,A27C C53U C72U U125A,-3.83
20,C62U G128C U133C,-2.74
21,A29C U54C,-1.78

row,Variant,polymerase ribozyme fitness (log ratio)
1,G63A U132C,-1.92
2,A50U C62U C70G G117U G120A,-6.48
3,C12A A26U G61A U131G,-4.35
4,G45U A84G U96G C101G,-4.84
5,C11G G45U G51C G61A,-3.84
6,C8A C115U,-0.595
7,G61A U133G,-0.781
8,A24G G51A U78C,-6.04
9,G36U C49U A95U,-3.5
10,C80U,-0.463
11,G17C G42A A74G A84C A91U,-4.35
12,U67C A105U,-4.9
13,G61A U132A,0.242
14,G60A C94A,-2.04
15,C12U G42U C73A U112A G135C,-0.178
16,U59C U112C,1.98
17,A26G C94G,-3.05
18,U55A G69U C82G,0.171
19,G93U U133C,-1.17
20,C28G G48A C72U,-3.41
21,G42C G44U A50C U125A,-3.27

row,Variant,polymerase ribozyme fitness (log ratio)
1,C62U U78C,-0.402
2,U7C C8G,-0.253
3,C11U C86A C104U,-1.37
4,C20U A41C U116C,-4.23
5,C4G,-1.33
6,A6G A41C G57U G60A A100U,-2.82
7,C64U U116A G120U,-1.79
8,G93A U132A G135U,-0.722
9,C13A G48A G61A U106A A118G,-2.04
10,U9G A26U,-2.33
11,U54G C88A A105U,-2.56
12,A2C C12G A46C C72U G113U,-7.24
13,A24G C82G,-1.98
14,C89U U92C U112G G127U U130A,-3.09
15,A37C G52C G117A,-2.76
16,G39A C97A G120C,-6.66
17,G36A A37G A111G G113C A121C,-5.88
18,C11G C40A G48U C70U,-1.6
19,C70U A119G,0.891
20,C3A G23C C40A A84C G110C,-5.53
21,A26U A83U,-2.58

row,Variant,polymerase ribozyme fitness (log ratio)
1,U7C C13G C72A,-0.177
2,G47C C102A,-3.89
3,U55C A121G,1.84
4,C11U C94G,-1.27
5,G10C U78C U106A U109G,-4.27
6,A27G G45A,-2.35
7,A5G G60A G120U,0.955
8,G39A C40A,-3.25
9,U59C G113A,-1.03
10,C12A C40U C82G U96C C97U,-6.18
11,U112G U116A G117U A121G,0.651
12,A26U A75G A95G,-2.74
13,A29U G48C G113C U129A,-4.71
14,U32C G71U,-1.13
15,U7G G10C G45A G47A U59G G77A,-1.37
16,C88A C124A,0.767
17,A46U C72G C114G,-3.52
18,C15U C80A,-4.32
19,G51A C72U C82U A83G C94U U126A,-2.93
20,A6U C12G C72U U78C,-0.414
21,C76G G77U U78G U112C,2.21
